According to the supplement of paper PMC10567573:

B1: NP_009172.2 (parent)
chain: LPALFTDLYSQEITAEEAREALP
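Further: lentivirally expressed fusion library, cells FACS-sorted into six equal-sized GFP/DsRed ratio bins, PSI computed from sequencing read fractions per bin weighted by bin number.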

Variants of: B1
Assay: protein stability index of a GFP-peptide fusion (GPS, HEK-293T) (PSI 1-6); higher = more stable
Conditions: c terminus: native
In the case of LPALFTDLYSQEITAEEAREAGP [L22G], the protein stability index is reported as 2.88. Variant LPALFTDLYSQEITAEEAREARP [L22R] has a protein stability index of 4.15. In the case of LPALFTDLYSQEITAEEAREAFP [L22F], the protein stability index is reported as 3.49. LPALFTDLYSQEITAEEAREAPP [L22P] gave a protein stability index of 3.63. In the case of LPALFTDLYSQEITAEEAREAEP [L22E], the protein stability index is reported as 2.69. LPALFTDLYSQEITAEEAREANP [L22N] showed a protein stability index of 4.7. Work on LPALFTDLYSQEITAEEAREAMP [L22M] yielded a protein stability index of 2.44. Work on LPALFTDLYSQEITAEEAREADP [L22D] yielded a protein stability index of 4.62. With LPALFTDLYSQEITAEEAREAWP [L22W] the protein stability index was 2.67. In the case of LPALFTDLYSQEITAEEAREAYP [L22Y], the protein stability index is reported as 3.49. LPALFTDLYSQEITAEEAREAAP [L22A] gave a protein stability index of 3.54. With LPALFTDLYSQEITAEEAREAHP [L22H] the protein stability index was 3.44. Variant LPALFTDLYSQEITAEEAREAIP [L22I] has a protein stability index of 2.37. LPALFTDLYSQEITAEEAREAQP [L22Q] gave a protein stability index of 3.01. In the case of LPALFTDLYSQEITAEEAREASP [L22S], the protein stability index is reported as 3.59. With LPALFTDLYSQEITAEEAREATP [L22T] the protein stability index was 3.44. LPALFTDLYSQEITAEEAREAKP [L22K] showed a protein stability index of 4.93. With LPALFTDLYSQEITAEEAREAVP [L22V] the protein stability index was 3.17. In the case of LPALFTDLYSQEITAEEAREACP [L22C], the protein stability index is reported as 2.65. Work on LPALFTDLYSQEITAEEAREGLP [A21G] yielded a protein stability index of 2.81. With LPALFTDLYSQEITAEEAREMLP [A21M] the protein stability index was 2.23. LPALFTDLYSQEITAEEARENLP [A21N] gave a protein stability index of 2.6. With LPALFTDLYSQEITAEEAREPLP [A21P] the protein stability index was 2.69. Work on LPALFTDLYSQEITAEEAREFLP [A21F] yielded a protein stability index of 2.31. With LPALFTDLYSQEITAEEARETLP [A21T] the protein stability index was 2.85. Variant LPALFTDLYSQEITAEEAREILP [A21I] has a protein stability index of 2.4. In the case of LPALFTDLYSQEITAEEAREDLP [A21D], the protein stability index is reported as 3.67. LPALFTDLYSQEITAEEAREKLP [A21K] showed a protein stability index of 2.46. LPALFTDLYSQEITAEEAREYLP [A21Y] showed a protein stability index of 2.3. LPALFTDLYSQEITAEEARERLP [A21R] showed a protein stability index of 2.02. For LPALFTDLYSQEITAEEAREVLP [A21V], the protein stability index was 2.16. LPALFTDLYSQEITAEEAREHLP [A21H] gave a protein stability index of 2.29. LPALFTDLYSQEITAEEAREQLP [A21Q] gave a protein stability index of 2.46. LPALFTDLYSQEITAEEARECLP [A21C] showed a protein stability index of 2.46. LPALFTDLYSQEITAEEARESLP [A21S] showed a protein stability index of 2.7. Work on LPALFTDLYSQEITAEEARELLP [A21L] yielded a protein stability index of 2.26. In the case of LPALFTDLYSQEITAEEAREWLP [A21W], the protein stability index is reported as 2.19. LPALFTDLYSQEITAEEAREELP [A21E] gave a protein stability index of 3.6. LPALFTDLYSQEITAEERREALP [A18R] showed a protein stability index of 2.45. For LPALFTDLYSQEITAEEVREALP [A18V], the protein stability index was 2.71. For LPALFTDLYSQEITAEECREALP [A18C], the protein stability index was 2.91. Variant LPALFTDLYSQEITAEEWREALP [A18W] has a protein stability index of 2.67. With LPALFTDLYSQEITAEEYREALP [A18Y] the protein stability index was 2.35. LPALFTDLYSQEITAEEPREALP [A18P] gave a protein stability index of 3.08. LPALFTDLYSQEITAEEKREALP [A18K] showed a protein stability index of 2.26. With LPALFTDLYSQEITAEEEREALP [A18E] the protein stability index was 2.83. LPALFTDLYSQEITAEEMREALP [A18M] showed a protein stability index of 2.75. For LPALFTDLYSQEITAEEHREALP [A18H], the protein stability index was 2.42. LPALFTDLYSQEITAEEIREALP [A18I] showed a protein stability index of 2.57. LPALFTDLYSQEITAEEQREALP [A18Q] showed a protein stability index of 2.86. For LPALFTDLYSQEITAEENREALP [A18N], the protein stability index was 2.75. In the case of LPALFTDLYSQEITAEEDREALP [A18D], the protein stability index is reported as 3.24. Variant LPALFTDLYSQEITAEEFREALP [A18F] has a protein stability index of 2.73. Work on LPALFTDLYSQEITAEESREALP [A18S] yielded a protein stability index of 2.72. Work on LPALFTDLYSQEITAEETREALP [A18T] yielded a protein stability index of 3.04. For LPALFTDLYSQEITAEELREALP [A18L], the protein stability index was 2.51. Variant LPALFTDLYSQEITAEEGREALP [A18G] has a protein stability index of 2.95. Work on LPALFTDLYSQEITAEYAREALP [E17Y] yielded a protein stability index of 2.32. For LPALFTDLYSQEITAERAREALP [E17R], the protein stability index was 1.87. Work on LPALFTDLYSQEITAEPAREALP [E17P] yielded a protein stability index of 2.73. With LPALFTDLYSQEITAEMAREALP [E17M] the protein stability index was 2.22. LPALFTDLYSQEITAEQAREALP [E17Q] gave a protein stability index of 2.83. Work on LPALFTDLYSQEITAEVAREALP [E17V] yielded a protein stability index of 2.43. In the case of LPALFTDLYSQEITAETAREALP [E17T], the protein stability index is reported as 2.3. With LPALFTDLYSQEITAENAREALP [E17N] the protein stability index was 2.5. LPALFTDLYSQEITAEIAREALP [E17I] showed a protein stability index of 2.4. With LPALFTDLYSQEITAELAREALP [E17L] the protein stability index was 2.16. With LPALFTDLYSQEITAEWAREALP [E17W] the protein stability index was 2.4. Work on LPALFTDLYSQEITAESAREALP [E17S] yielded a protein stability index of 2.33. Variant LPALFTDLYSQEITAEKAREALP [E17K] has a protein stability index of 2.18. For LPALFTDLYSQEITAEEAREALY [P23Y], the protein stability index was 3.49. LPALFTDLYSQEITAEEAREALW [P23W] showed a protein stability index of 3. Variant LPALFTDLYSQEITAEEAREALF [P23F] has a protein stability index of 3.94. Variant LPALFTDLYSQEITAEEAREALS [P23S] has a protein stability index of 4.8. LPALFTDLYSQEITAEEAREALL [P23L] gave a protein stability index of 4.01. LPALFTDLYSQEITAEEAREALE [P23E] showed a protein stability index of 5. With LPALFTDLYSQEITAEEAREALD [P23D] the protein stability index was 5.15. LPALFTDLYSQEITAEEAREALV [P23V] showed a protein stability index of 4.18. LPALFTDLYSQEITAEEAREALR [P23R] showed a protein stability index of 2.83. Variant LPALFTDLYSQEITAEEAREALM [P23M] has a protein stability index of 2.27. Variant LPALFTDLYSQEITAEEAREALI [P23I] has a protein stability index of 3.59. With LPALFTDLYSQEITAEEAREALN [P23N] the protein stability index was 4.89. Work on LPALFTDLYSQEITAEEAREALG [P23G] yielded a protein stability index of 4.69. LPALFTDLYSQEITAEEAREALQ [P23Q] showed a protein stability index of 4.85. With LPALFTDLYSQEITAEEAREALA [P23A] the protein stability index was 4.14. LPALFTDLYSQEITAEEAREALH [P23H] gave a protein stability index of 4.15. LPALFTDLYSQEITAEEAREALT [P23T] gave a protein stability index of 4.6. LPALFTDLYSQEITAEEAREALK [P23K] showed a protein stability index of 4.82. LPALFTDLYSQEITAEEAREALC [P23C] showed a protein stability index of 4.21. LPALFTDLYSQEITAEEARPALP [E20P] showed a protein stability index of 2.86. LPALFTDLYSQEITAEEARVALP [E20V] gave a protein stability index of 2.6. In the case of LPALFTDLYSQEITAEEARNALP [E20N], the protein stability index is reported as 2.2. With LPALFTDLYSQEITAEEARIALP [E20I] the protein stability index was 2.32. LPALFTDLYSQEITAEEARFALP [E20F] gave a protein stability index of 2.43. Work on LPALFTDLYSQEITAEEARLALP [E20L] yielded a protein stability index of 2.51. Variant LPALFTDLYSQEITAEEARHALP [E20H] has a protein stability index of 2.27.
